{"source": "patent US20150166987", "about": "“PROGRAMMABLE AND RECONFIGURABLE MICROCOLUMN AFFINITY CHROMATOGRAPY DEVICE, SYSTEM, AND METHODS OF USE THEREOF” (CORNELL UNIVERSITY, published 2015)", "binders": {"B1": {"name": "NELFapt (Napt1) (ssRNA)", "RNA": "GGGAAUGGAUCCACAUCUACGAAUUCCCAACGACUGCCGAGCGAGAUUACGCUUGAGCGCCCCACUGAGGAUGCCCACGGGCGAUUGGGGCACGGCUUCACUGCAGACUUGACGAAGCUU"}, "B2": {"name": "GFPapt (AP3-1) (ssRNA)", "RNA": "AGCUUCUGGACUGCGAUGGGAGCACGAAACGUCGUGGCGCAAUUGGGUGGGGAAAGUCCUUAAAAGAGGGCCACCACAGAAGCU"}, "B3": {"name": "HSFapt (hHSF2-R5-2) (ssRNA)", "RNA": "GGGAAUGGAUCCACAUCUACGAAUUCAAUCAAGUCCCCAGACUCAGCAACACUGGACAGCGAUAUGCAGAUAACCAAGACCAAUUCACUCCAGUUCACUGCAGACUUGACGAAGCUU"}}, "key": {"[1]": {"target": "T1, NELF-E (Drosophila, UniProt P92204 P92204:1-280)", "T1 sequence": "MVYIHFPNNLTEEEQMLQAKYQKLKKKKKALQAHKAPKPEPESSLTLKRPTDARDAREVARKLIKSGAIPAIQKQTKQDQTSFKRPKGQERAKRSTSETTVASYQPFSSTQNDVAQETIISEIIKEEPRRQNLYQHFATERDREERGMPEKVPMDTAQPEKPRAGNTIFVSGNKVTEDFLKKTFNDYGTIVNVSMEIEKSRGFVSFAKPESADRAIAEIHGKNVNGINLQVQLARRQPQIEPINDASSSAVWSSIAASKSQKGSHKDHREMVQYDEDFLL", "assay": "pulldown; serial microcolumns, qPCR; enrichment falls above 0.6 ug/uL NELF-E, de-enriched at 10 ug/uL", "conditions": "tags: N-terminal hexahistidine; immobilised on Ni-NTA Superflow resin"}, "[2]": {"target": "GFP (UniProt P42212 P42212:1-238)", "assay": "pulldown; serial microcolumns, qPCR; 10 mM HEPES-KOH pH 7.6, 125 mM NaCl, 25 mM KCl, 5 mM MgCl2, 0.02% Tween-20; GFP 0.6 ug/uL resin", "conditions": "tags: N-terminal hexahistidine; immobilised on Ni-NTA Superflow resin", "experimental": "(§1) The order of targets was as follows: Empty, GSH, Ni-NTA, Amylose, His-GFP, GST-hHSF1, His-NELF-E, His-UBLCP1, and is illustrated in FIG. 41 in section I.\n(§2) The RNA pools were injected at a rate of 33 μL/min for 30 min with a 10 μL aliquot of each pool set aside and used as a standard for quantitative polymerase chain reaction (qPCR) analysis. All buffers and solutions were degassed prior to use and introduced into the microcolumns via programmable multichannel syringe pumps (Harvard Apparatus) with MEDUSA placed onto a 96-well format liquid waste reservoir. The microcolumns were reconfigured to run in parallel by removing the caps and silicone layers permitting the connectivity of microcolumns, and reassembling the device with the appropriate caps for a parallel configuration, and washed with 3 mL of binding buffer at a rate of 300 μL/min. The RNA/RNA-protein complexes were eluted directly into a 96-well microplate from the individual microcolumns by flowing elution buffer [binding buffer+50 mM ethylenediaminetetraacetic acid (EDTA pH 8.0) for selections with Ni-NTA resin; binding buffer+10 mM glutathione for selections with GSH resin; binding buffer+10 mM maltose for selections with amylose-resin] at a rate of 50 μL/min for 12 min. […]"}, "[3]": {"target": "hHSF1 (heat shock factor 1) (UniProt Q00613 Q00613:1-529)", "sequence (Q00613 whole entry, one chain of several)": "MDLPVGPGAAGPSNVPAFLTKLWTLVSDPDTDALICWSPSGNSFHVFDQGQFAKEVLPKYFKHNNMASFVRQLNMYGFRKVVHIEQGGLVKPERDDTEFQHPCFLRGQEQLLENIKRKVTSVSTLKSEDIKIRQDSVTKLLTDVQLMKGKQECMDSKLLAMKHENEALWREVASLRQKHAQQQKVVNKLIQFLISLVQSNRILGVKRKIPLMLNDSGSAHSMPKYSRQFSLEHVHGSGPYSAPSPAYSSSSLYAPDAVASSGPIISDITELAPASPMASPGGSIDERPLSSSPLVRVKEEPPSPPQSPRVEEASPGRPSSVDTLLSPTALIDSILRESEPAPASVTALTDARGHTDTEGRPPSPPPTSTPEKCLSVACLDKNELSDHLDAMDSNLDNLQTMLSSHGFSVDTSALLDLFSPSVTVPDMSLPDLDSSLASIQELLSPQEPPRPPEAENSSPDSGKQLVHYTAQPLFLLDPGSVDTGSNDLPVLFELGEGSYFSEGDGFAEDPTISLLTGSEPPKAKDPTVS", "assay": "pulldown; serial microcolumns, qPCR; same buffer, 5 mM MgCl2", "conditions": "tags: N-terminal GST; immobilised on glutathione-agarose", "experimental": "as §1, §2"}}}
{"binder": "B1", "values": [{"measurement": "binding signal", "setting": "[1]", "value": "262 fold enrichment over N70 library"}]}
{"binder": "B2", "values": [{"measurement": "binding signal", "setting": "[2]", "value": "750 fold enrichment over N70 library"}]}
{"binder": "B3", "values": [{"measurement": "binding signal", "setting": "[3]", "value": "232 fold enrichment over N70 library"}]}
